Test results published in EP4703390A1 (Chia Tai Tianqing Pharmaceutical Group Co., Ltd., dated 2026).
Substitutions are numbered along the chain they refer to.

B1: anti-EGFR/anti-c-Met multispecific antibody V42 (bispecific antibody, human IgG1, kappa)
chain: QVQLLESGGGSVQAGGSLRLSCAASGHTYSSGCMGWFRQAPGKGREGVATIYTRNDFTYYSDTVKGRFTISRDNSKNTVYLQMNSLRAEDTAVYYCAAGSPFRYAGAWNVCGLKEEDYNYWGQGTLVTVSSGGGGSGGGGSQVQLVESGGGSVQPGGSLRLSCAASGYSYSANCVGWFRQAPGKGREGVSAINTGGETATYADFVKGRFTISRDNAKNTVYLQMNSLRAEDTAVYYCAAVGTRKYWDECSLSQHAYKNWGQGTLVTVSSGEPKSSDKTHTCPPCPAPELLGGPSVFLFPPKPKDTLMISRTPEVTCVVVDVSHEDPEVKFNWYVDGVEVHNAKTKPREEQYNSTYRVVSVLTVLHQDWLNGKEYKCKVSNKALPAPIEKTISKAKGQPREPQVCTLPPSREEMTKNQVSLSCAVKGFYPSDIAVEWESNGQPENNYKTTPPVLDSDGSFFLVSKLTVDKSRWQQGNVFSCSVMHEALHNRFTQKSLSLSPGK
heavy: not shown
light: not shown
notes: Three chains, trivalent: 1B-1B6-V3 VHH - 1B-1C7-V1 VHH - Fc plus anti-EGFR Fab arm; knob-into-hole Fc; expressed in FUT8-/- CHO-S cells
B2: amivantamab (bispecific antibody)
chain 1: not shown
chain 2: not shown
chain 3: not shown
chain 4: DIQMTQSPSSVSASVGDRVTITCRASQGISNWLAWFQHKPGKAPKLLIYAASSLLSGVPSRFSGSGSGTDFTLTISSLQPEDFATYYCQQANSFPITFGQGTRLEIKRTVAAPSVFIFPPSDEQLKSGTASVVCLLNNFYPREAKVQWKVDNALQSGNSQESVTEQDSKDSTYSLSSTLTLSKADYEKHKVYACEVTHQGLSSPVTKSFNRGEC
B3: anti-EGFR/anti-c-Met multispecific antibody V73 (bispecific antibody, human IgG1, kappa)
chain: EVQLVESGGGSVQAGGSLRLSCAVSGFTVSSNFMAWFRQAPGKGREWVSTITTGAGNTAYADSVKGRFTISEDNSKNTLYLQMNSLRAEDTAVYYCAAGRGGFWRPAEYDFWGQGTTVTVSSGGGGSQVQLVESGGGSVQPGGSLRLSCAASGYSYSANCVGWFRQAPGKGREGVSAINTGGETATYADFVKGRFTISRDNAKNTVYLQMNSLRAEDTAVYYCAAVGTRKYWDECSLSQHAYKNWGQGTLVTVSSGEPKSSDKTHTCPPCPAPELLGGPSVFLFPPKPKDTLMISRTPEVTCVVVDVSHEDPEVKFNWYVDGVEVHNAKTKPREEQYNSTYRVVSVLTVLHQDWLNGKEYKCKVSNKALPAPIEKTISKAKGQPREPQVCTLPPSREEMTKNQVSLSCAVKGFYPSDIAVEWESNGQPENNYKTTPPVLDSDGSFFLVSKLTVDKSRWQQGNVFSCSVMHEALHNRYTQKSLSLSPGK
heavy: not shown
light: not shown
notes: knob-into-hole Fc; expressed in FUT8-/- CHO-S cells
B4: anti-EGFR/anti-c-Met multispecific antibody V35 (bispecific antibody, human IgG1, kappa)
chain: B1 chain with T63S
heavy: not shown
light: not shown
notes: Three chains, trivalent: 1B-1B6-V2 VHH - 1B-1C7-V1 VHH - Fc plus anti-EGFR Fab arm; knob-into-hole Fc; expressed in FUT8-/- CHO-S cells
B5: anti-EGFR/anti-c-Met multispecific antibody V41 (bispecific antibody, human IgG1, kappa)
chain: B1 chain with H27F, Y29F, T63S
heavy: not shown
light: not shown
notes: Three chains, trivalent: 1B-1B6-V1 VHH - 1B-1C7-V1 VHH - Fc plus anti-EGFR Fab arm; knob-into-hole Fc; expressed in FUT8-/- CHO-S cells
B6: anti-EGFR/anti-c-Met multispecific antibody V12 (bispecific antibody, human IgG1, kappa)
chain: QVQLVESGGDSVQAGGSLRLSCAASAHAYSSGCMGWFRQAPGKGREGVATIYTRNDFTYYSDSVKGRFTISRDDAKNTVYLQVNSLKAEDTAMYYCAAGSPFRYAGAWNVCGLKEEDYNYWGQGTLVTVSSGGGGSGGGGSQVQLVESGGGLVQPGGSLRLSCAASGYSYSANCVGWFYQAPGKEREGVAAINTGGETATYADFVKGRFTISQDYAKNTVYLQMNSLKSEDTGMYYCAAVGTRKYWDECSLSQHAYKNWGQGTLVTVSSGEPKSSDKTHTCPPCPAPELLGGPSVFLFPPKPKDTLMISRTPEVTCVVVDVSHEDPEVKFNWYVDGVEVHNAKTKPREEQYNSTYRVVSVLTVLHQDWLNGKEYKCKVSNKALPAPIEKTISKAKGQPREPQVCTLPPSREEMTKNQVSLSCAVKGFYPSDIAVEWESNGQPENNYKTTPPVLDSDGSFFLVSKLTVDKSRWQQGNVFSCSVMHEALHNRFTQKSLSLSPGK
heavy: not shown
light: not shown
notes: Three chains, trivalent: 1B-1B6 VHH - 1B-1C7 VHH - Fc plus anti-EGFR Fab arm; knob-into-hole Fc; expressed in FUT8-/- CHO-S cells
B7: anti-EGFR/anti-c-Met multispecific antibody V74 (bispecific antibody, human IgG1, kappa)
chain: B3 chain with L79A
heavy: not shown
light: not shown
notes: as for B3
B8: anti-EGFR/anti-c-Met multispecific antibody V67 (bispecific antibody, human IgG1, kappa)
chain: EVQLVESGGGSVQAQGSLRLSCTVSGSTYSSNFMAWFRQAPGKEREWVATITTGAGNTAYADSVKGRFTISEDNAKRTAYLQMNSLKPEDTAVYYCAAGRGGFWRPAEYDFWGQGTQVTVSSGGGGSQVQLVESGGGSVQPGGSLRLSCAASGYSYSANCVGWFRQAPGKGREGVSAINTGGETATYADFVKGRFTISRDNAKNTVYLQMNSLRAEDTAVYYCAAVGTRKYWDECSLSQHAYKNWGQGTLVTVSSGEPKSSDKTHTCPPCPAPELLGGPSVFLFPPKPKDTLMISRTPEVTCVVVDVSHEDPEVKFNWYVDGVEVHNAKTKPREEQYNSTYRVVSVLTVLHQDWLNGKEYKCKVSNKALPAPIEKTISKAKGQPREPQVCTLPPSREEMTKNQVSLSCAVKGFYPSDIAVEWESNGQPENNYKTTPPVLDSDGSFFLVSKLTVDKSRWQQGNVFSCSVMHEALHNRYTQKSLSLSPGK
heavy: not shown
light: not shown
notes: as for B3

What follows are binders tested against T1, EGFR and c-Met on the surface of tumor cells (human, UniProt P00533 25-1210; P08581 25-1390) (assay: cell-based or functional assay).

endocytic activity EC50, A431 cells (flow cytometry, internalization reagent)	endocytic activity EC50, NCI-H441 cells (flow cytometry, internalization reagent)	endocytic activity EC50, NCI-H1975 cells (flow cytometry, internalization reagent)	Binder
10.5 nM	11.8 nM	9.66 nM	B1
15.1 nM	35.6 nM	15.2 nM	B2
8.33 nM	16.7 nM	12.4 nM	B3

Biological target: T1, EGFR and c-Met on the surface of tumor …
Assay: cell-based or functional assay
Remark: another data set of the same source

IC50 for inhibiting proliferation of KP4 cells (CCK8)	IC50 for inhibiting proliferation of NCI-H292 cells (CCK8, with 1 ng/mL HGF)	Binder
13.1 nM	13.7 nM	B1
29 nM	45.8 nM	B2
7.99 nM	5.36 nM	B3

What follows are binders tested against T2, Human c-Met-His (SinoBiological, Cat. No. 10692-H08H) (human, UniProt P08581 25-932) (assay: SPR (Biacore), antibody captured on anti-hIgG Fc chip, human c-Met-His as analyte).
T2 construct: Bought protein; also called c-Met-His protein; human c-Met protein; not shown: His tag
T2 sequence (P08581 25-932 limits assumed): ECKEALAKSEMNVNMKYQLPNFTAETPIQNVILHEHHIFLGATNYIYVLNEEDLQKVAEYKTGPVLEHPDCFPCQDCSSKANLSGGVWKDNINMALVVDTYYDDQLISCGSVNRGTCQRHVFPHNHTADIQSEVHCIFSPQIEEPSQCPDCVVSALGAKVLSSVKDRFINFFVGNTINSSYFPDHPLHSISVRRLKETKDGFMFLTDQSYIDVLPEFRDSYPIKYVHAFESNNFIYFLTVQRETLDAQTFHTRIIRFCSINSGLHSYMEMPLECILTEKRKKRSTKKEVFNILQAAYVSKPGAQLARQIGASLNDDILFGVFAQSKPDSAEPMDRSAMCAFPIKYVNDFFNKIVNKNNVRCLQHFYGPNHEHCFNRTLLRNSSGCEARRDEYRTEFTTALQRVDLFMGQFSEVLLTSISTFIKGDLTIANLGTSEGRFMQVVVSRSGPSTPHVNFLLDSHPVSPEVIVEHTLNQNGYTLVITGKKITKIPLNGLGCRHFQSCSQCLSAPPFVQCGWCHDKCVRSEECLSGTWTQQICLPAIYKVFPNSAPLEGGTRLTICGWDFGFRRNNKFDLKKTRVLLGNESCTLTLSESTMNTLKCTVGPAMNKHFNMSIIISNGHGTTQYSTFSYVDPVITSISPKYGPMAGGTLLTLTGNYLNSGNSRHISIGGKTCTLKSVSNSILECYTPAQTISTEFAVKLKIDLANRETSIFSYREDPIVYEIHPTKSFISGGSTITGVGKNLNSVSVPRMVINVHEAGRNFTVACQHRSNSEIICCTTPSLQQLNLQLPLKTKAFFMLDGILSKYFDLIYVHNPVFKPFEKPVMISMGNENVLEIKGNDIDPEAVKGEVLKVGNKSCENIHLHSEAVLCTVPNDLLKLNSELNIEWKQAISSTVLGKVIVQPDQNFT

Kd	koff	kon	Binder
0.318 nM	3.34e-05 s⁻¹	105000 M⁻¹ s⁻¹	B4
0.368 nM	3.57e-05 s⁻¹	97000 M⁻¹ s⁻¹	B5
0.438 nM	4.39e-05 s⁻¹	100000 M⁻¹ s⁻¹	B1
0.325 nM	4.62e-05 s⁻¹	142000 M⁻¹ s⁻¹	B6
0.548 nM	0.000128 s⁻¹	234000 M⁻¹ s⁻¹	B7
0.458 nM	9.03e-05 s⁻¹	197000 M⁻¹ s⁻¹	B3
0.276 nM	7.01e-05 s⁻¹	254000 M⁻¹ s⁻¹	B8

These binders were tested against T1, EGFR and c-Met on the surface of tumor … (assay: flow cytometry, A431 cells (high EGFR, low c-Met)).

EC50	Binder
1.85 nM	B1
1.62 nM	B2
1.91 nM	B3

Biological target: T1, EGFR and c-Met on the surface of tumor …
Assay: cell-based or functional assay
Remark: another data set of the same source

ADCC lysis EC50, KP4 cells, human PBMC effectors	ADCC lysis EC50, NCI-H292 cells, human PBMC effectors	Binder
0.0117 nM	0.0135 nM	B1
0.0171 nM	0.021 nM	B2
0.027 nM	0.0181 nM	B3

These binders were tested against T1, EGFR and c-Met on the surface of tumor … (assay: flow cytometry, NCI-H1975 cells (medium EGFR, low to medium c-Met)).

EC50	Binder
0.755 nM	B1
0.378 nM	B2
0.794 nM	B3

What follows are binders tested against T1, EGFR and c-Met on the surface of tumor … (assay: flow cytometry, NCI-H1993 cells (medium EGFR, high c-Met)).

EC50	Binder
1.03 nM	B1
0.596 nM	B2
1.02 nM	B3
